Results taken from patent US20110318347A1.

Assays:
human CXCR4 (human) [1] = experiment: periplasmic fraction (1:10), displacement of [125I]-CXCL12, HEK293T-CXCR4 membranes; - = 0-29%, + = 30-69%, ++ = 70-100%
human CXCR4 (human) [2] = target: human CXCR4 (human)
human CXCR4 (human) [3] = experiment: competition with [125I]-CXCL12 on HEK293T-CXCR4 membranes
human CXCR4 (human) [4] = experiment: competition vs [125I]-238D2 (3 nM), membranes of HEK293T cells expressing CXCR4
human CXCR4 (human) [5] = experiment: competition with [125I]-238D4 on HEK293T-CXCR4 membranes
human CXCR4 (human) [6] = experiment: competition vs [125I]-CXCL12 (40 pM), membranes of HEK293T cells expressing CXCR4
human CXCR4 (human) [7] = experiment: cell-based or functional assay
human CXCR4 (human) [8] = experiment: competition vs [125I]-238D4 (3 nM), membranes of HEK293T cells expressing CXCR4
human CXCR4 (human) [9] = experiment: competition with [125I]-238D2 on HEK293T-CXCR4 membranes

Nanobody 238D2 (VHH), sequence (VHH): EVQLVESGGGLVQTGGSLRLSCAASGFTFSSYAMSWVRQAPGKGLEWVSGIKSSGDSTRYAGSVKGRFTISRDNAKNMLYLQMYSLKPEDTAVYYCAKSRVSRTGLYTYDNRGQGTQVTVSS

Question: Which results are given for Nanobody 238D2 (VHH)?
Answer: percent inhibition of specific [125I]-CXCL12 binding (human CXCR4 (human) [1]): 70 to 100%; IC50 (read off the curve), migration of Jurkat cells towards 0.3 nM CXCL12 (human CXCR4 (human) [2]): 8 nM; IC50 (read off the curve) (human CXCR4 (human) [3]): 20 nM; Displacem. (%) (human CXCR4 (human) [4]): 97%; pKi (human CXCR4 (human) [4]): 8.41; IC50 (read off the curve) (human CXCR4 (human) [5]): 4 nM; Displacem. (%) (human CXCR4 (human) [6]): 93%; pKi (human CXCR4 (human) [6]): 8.01; Anti-HIV-1 activity (in nM), MT-4/HE (human CXCR4 (human) [7]): 26.7 nM; Anti-HIV-1 activity (in nM), MT-4/NL4.3 (human CXCR4 (human) [7]): 30.7 nM; Anti-HIV-1 activity (in nM), PBMC/HE (human CXCR4 (human) [7]): 44.7 nM; Anti-HIV-1 activity (in nM), PBMC/NL4.3 (human CXCR4 (human) [7]): 30.9 nM; Anti-HIV-1 activity (in nM), U87.CD4.CXCR4/NL4.3 (human CXCR4 (human) [7]): 44.7 nM; CRE activation, HEK293T-CXCR4-CREbgal/0.01-100 nM CXCL12, Imax (%) (human CXCR4 (human) [7]): 104%; Chemotaxis, Jurkat/0.3 nM CXCL12, Imax (%) (human CXCR4 (human) [7]): 106%; IC50, HIV-1 NL4.3, MT-4 cells, exp. 1 (human CXCR4 (human) [7]): 0.701 µg/mL; IC50, HIV-1 NL4.3, PBMC donor 1 (human CXCR4 (human) [7]): 0.468 µg/mL; IC50, HIV-1 NL4.3, PBMC donor 2 (human CXCR4 (human) [7]): 0.307 µg/mL; IC50, HIV-1 UG270, PBMC donor 1 (human CXCR4 (human) [7]): 0.492 µg/mL; IC50, HIV-1 UG270, PBMC donor 2 (human CXCR4 (human) [7]): 0.447 µg/mL; IC90, HIV-1 NL4.3, MT-4 cells, exp. 1 (human CXCR4 (human) [7]): 0.849 µg/mL; IC90, HIV-1 NL4.3, PBMC donor 1 (human CXCR4 (human) [7]): > 1 µg/mL; IC90, HIV-1 NL4.3, PBMC donor 2 (human CXCR4 (human) [7]): > 1 µg/mL; IC90, HIV-1 UG270, PBMC donor 1 (human CXCR4 (human) [7]): > 1 µg/mL; IC90, HIV-1 UG270, PBMC donor 2 (human CXCR4 (human) [7]): 0.851 µg/mL; IP accumulation, HEK293T-CXCR4-Gαqi5/30 nM CXCL12, Imax (%) (human CXCR4 (human) [7]): 86%; nM IC50, HIV-1 NL4.3, PBMC donor 1 (human CXCR4 (human) [7]): 31.2 nM; nM IC50, HIV-1 NL4.3, PBMC donor 2 (human CXCR4 (human) [7]): 20.5 nM; nM IC50, HIV-1 UG270, PBMC donor 1 (human CXCR4 (human) [7]): 32.8 nM; nM IC50, HIV-1 UG270, PBMC donor 2 (human CXCR4 (human) [7]): 29.8 nM; pKi (human CXCR4 (human) [8]): 8.23; IC50 (read off the curve) (human CXCR4 (human) [9]): 6 nM

Question: Which Displacem. (%) (human CXCR4 (human) [4]) does the source give for monoclonal antibody 12G5 here?
Answer: 89%

Question: What about the pKi (human CXCR4 (human) [4]) of the same substance?
Answer: 9.65

Question: And the Displacem. (%) (human CXCR4 (human) [6])?
Answer: 54%

Question: And the pKi (human CXCR4 (human) [6])?
Answer: 9.19

Question: And the Displacem. (%) (human CXCR4 (human) [8])?
Answer: 90%

Question: What about the pKi (human CXCR4 (human) [8]) of the same substance?
Answer: 9.31
